Assay [1] deals with T1, rHuman EGF R/Fc Chimera, CF (R&D Systems Cat#344-ER) (human, UniProt P00533 25-645).
T1 construct: Bought protein; also called epidermal growth factor receptor; Fc part of the bought chimera not given
Briefly: ECL (MSD multi-spot), antigen spotted on plate; Fab 200 nM; blank 1787.

Assay [2] addresses T2, rHuman HGF R/c-MET/Fc Chimera, CF (R&D Systems Cat#358-MT/CF) (human, UniProt P08581 25-932).
T2 construct: Bought protein; also called HGF R/Fc; hepatocyte growth factor receptor; Fc part of the bought chimera not given
The assay is described as above.

The target in assay [3] is T3, rHuman IGF-1 sR (IGF-1 sR), CF (R&D Systems Cat#391-GR) (human, UniProt P08069 31-932).
T3 construct: Bought soluble receptor; also called insulin-like growth factor-1 soluble receptor; IGF-R1
The assay is described as above.

Assay [4] addresses T4, Recombinant Human DLL4 (R&D Systems Cat#1506-D4/CF) (human, UniProt Q9NR61 27-524).
T4 construct: Bought protein; also called rHuman DLL4; delta-like protein 4
Described as above.

The target in assay [5] is T1, rHuman EGF R/Fc Chimera, CF (R&D …). Briefly: ECL (MSD multi-spot), antigen spotted on plate; Fab 0.32 nM; blank 518.
Assay [6] deals with T2, rHuman HGF R/c-MET/Fc Chimera, CF (R&D …). The description is as above.
In assay [7] the target is T3, rHuman IGF-1 sR (IGF-1 sR), CF (R&D …). The description is as above.
The target of assay [8] is T4, Recombinant Human DLL4 (R&D Systems …). The assay is described as above.
Assay [9] has as its target T1, rHuman EGF R/Fc Chimera, CF (R&D …). Briefly: ECL (MSD multi-spot), antigen spotted on plate; Fab 1.6 nM; blank 713.
The target in assay [10] is T2, rHuman HGF R/c-MET/Fc Chimera, CF (R&D …). The description is as above.
Assay [11] has as its target T3, rHuman IGF-1 sR (IGF-1 sR), CF (R&D …). Described as above.
The target in assay [12] is T4, Recombinant Human DLL4 (R&D Systems …). Described as above.
The target of assay [13] is T1, rHuman EGF R/Fc Chimera, CF (R&D …). Briefly: ECL (MSD multi-spot), antigen spotted on plate; Fab 1000 nM; blank 2186.
Assay [14] addresses T2, rHuman HGF R/c-MET/Fc Chimera, CF (R&D …). Described as above.
In assay [15] the target is T3, rHuman IGF-1 sR (IGF-1 sR), CF (R&D …). The assay is described as above.
For assay [16], the target named is T4, Recombinant Human DLL4 (R&D Systems …). The assay is described as above.
For assay [17], the target named is T1, rHuman EGF R/Fc Chimera, CF (R&D …). Briefly: ECL (MSD multi-spot), antigen spotted on plate; Fab 8 nM; blank 1117.
Assay [18] concerns the target T2, rHuman HGF R/c-MET/Fc Chimera, CF (R&D …). The description is as above.
The target in assay [19] is T3, rHuman IGF-1 sR (IGF-1 sR), CF (R&D …). Described as above.
In assay [20] the target is T4, Recombinant Human DLL4 (R&D Systems …). The description is as above.
The target in assay [21] is T1, rHuman EGF R/Fc Chimera, CF (R&D …). Briefly: ECL (MSD multi-spot), antigen spotted on plate; Fab 40 nM; blank 1442.
For assay [22], the target named is T2, rHuman HGF R/c-MET/Fc Chimera, CF (R&D …). The assay is described as above.
The target of assay [23] is T3, rHuman IGF-1 sR (IGF-1 sR), CF (R&D …). The assay is described as above.
For assay [24], the target named is T4, Recombinant Human DLL4 (R&D Systems …). The assay is described as above.
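Further: blank spot per well as comparator with Hit at signal to blank ratio of 4 or more.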

B1: Fab VH1-46_IGHD6-6*01>1_IGHJ1*01_S104F & L6_IGKJ1*01 (Fab, V domains shown)
VH: QVQLVQSGAEVKKPGASVKVSCKASGYTFTSYYMHWVRQAPGQGLEWMGIINPSGGSTSYAQKFQGRVTMTRDTSTSTVYMELSSLRSEDTAVYYCAREEYSSFSAEYFQHWGQGTLVTVSS
VL: not shown
notes: Expressed in E. coli as a Fab; The heavy chain also carries the CH1 with Flag and His tags from Plasmid A, and the light chain the kappa CL from Plasmid C; also called VH1-46_IGHD6-6*01_IGHJ1*01 S104F & L6_IGKJ1*01; IGHV1-46*01
Turning to B1, the ECL signal in assay [1] stood at 2920; in assay [2] it was 2840; in assay [3] it was 2780; in assay [4], 58700; in assay [5] it was 709; in [6], 710. Also, the ECL signal was 630 in assay [7]; 916 in assay [8]; 987 in assay [9]; 861 in assay [10]; 966 in [11]; 5920 in assay [12]. For the same molecule, the ECL signal in assay [13] was 3580; in assay [14] it was 3310; in assay [15], 3070; in assay [16] it was 35300; in assay [17] it was 1470; in assay [18], 1620. The ECL signal in [19] turned out to be 1520; in assay [20] it was 44800; in [21] it was 2300; in [22], 2110; in assay [23], 2140; in [24], 62000.

Values taken from US20120058906A1 (published 2012).
